In one data set the target is rTrx (UniProt P0AA25 1-109). The experiment in a line: EMSA.
Data set [1] deals with T1, rDorsal-RHD (Litopenaeus vannamei, UniProt D2E9Y3 74-253).
T1 sequence: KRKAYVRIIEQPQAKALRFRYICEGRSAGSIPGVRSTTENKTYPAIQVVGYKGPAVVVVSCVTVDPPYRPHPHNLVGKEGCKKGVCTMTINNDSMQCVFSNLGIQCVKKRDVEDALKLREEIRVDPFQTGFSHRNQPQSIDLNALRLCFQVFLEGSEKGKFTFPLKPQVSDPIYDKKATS
Nature of the data set: EMSA. Background: A gel shift assay detects complexes by their altered migration in electrophoresis.

The target in data set [2] is T1, rDorsal-RHD. Nature of the data set: competition.

rTrx, sequence (P0AA25 whole entry): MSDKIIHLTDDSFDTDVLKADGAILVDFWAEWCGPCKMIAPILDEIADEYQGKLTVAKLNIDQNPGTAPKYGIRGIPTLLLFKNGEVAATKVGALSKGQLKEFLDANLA

B1: probe 1 (BigPEN kB1) (dsDNA)
DNA 1: TCTGTGTGTGTGTCCTTTAGTGTTTTTCGCCGGAGAAAACATTATCAGAC
DNA 2: GTCTGATAATGTTTTCTCCGGCGAAAAACACTAAAGGACACACACACAGA
Take B1: the binding result was “no binding” in the data set with rTrx and “binds” with rDorsal-RHD [1].

B2: unlabeled probe 1 (dsDNA)
DNA 1: B1 DNA 1
DNA 2: B1 DNA 2
As to B2, in the data set with rDorsal-RHD [2], the binding result was “binds”.

B3: Mut-bio-probe 1 (dsDNA)
DNA 1: TCTGTGTGTGTGTCCTTTACGGAGAAAACATTATCAGA
DNA 2: TCTGATAATGTTTTCTCCGTAAAGGACACACACACAGA
On to B3, for which the binding result with rDorsal-RHD [1] is recorded as “no binding”.

The values above are taken from paper doi:10.1101/467571.
